Laboratory results as given in the DeepSol protein solubility set.

Experiment: soluble on expression in E. coli; label from the status in PepcDB or PDB records

Row | Sequence | soluble on expression in E. coli
1 | MGSDKIHHHHHHMKTSPRSNRLHIALFGKRNSGKSSLINALTNQNAALVSDIAGTTTDPVYQPMEIHGIGPCVFIDTAGFDDEGELGSLRIERTLQAADKADIALMVCCDTELSEEQRWIELLKERNIPYLLVLNKADLLEKPDEVADKLEQQTGQHPLIVSAKEKTGIDSIRQSILHRLPELNEQPDIVGDLANEGDVVLLVMPQDIQAPKGRLILPQVQTLRELLDKKCITLSCTTDQLDNALKALSVPPSLIITDSQVFRTVYEKKPPQSRLTSFSVLFARYKGDIDYYTEGAYIIDQLTENSRVLIAEACTHAPLSEDIGRVKLPRMLRKRIGEKLHIDIVSGNDFPKDLNCYDLIIHCGACMFNRKHVLNRIVKAKAQGVPMTNYGIVIAYINGIPFH | not soluble
2 | MEHNILQVIALAEKLKYEMRHSWLSNGRQESVAEHTWRMSLMAILVEPYLDQKVSIEKLLKMVIIHDLVEAEAGDIPAFDTMNSHDLQLQKQKNELEAILNIKQTLTGSLGEELYDLWMEFEAKETYEAKVANALDKLEVKIQHNEADIDTWLPIEHKMTFQVAKHTNFDSFLSKLQKIIEQDGEKKLIAAGIDVEACKQ | soluble
3 | MGSDKIHHHHHHMNWDDVRIFLAVARAGQILGAARRLELNHATVSRRIAALEDALRTKLFRRLTTGSELTPAGERFLDIAERMEGEMIAARSTISGEGDDISGTVRIGAPDGFGVAFLARRLGELTALHRELTIQLVPVPRSFSLSRREADIAITVERPTEGRLVAGKLVDYSLGLFASRAYADANGLPKTAAELGRHPLIGYVPDLIVSPSLDYAAEFSADWRTSFAISSALGQAEAVRSGAGIGILHTFVARSMPELVAVDAVAPIRRAYWLVYHESVRPLRRIQIVAGFITKAVERERSLFL | not soluble
4 | MPLIAGIDIGNATTEVALASDYPQARAFVASGIVATTGMKGTRDNIAGTLAALEQALAKTPWSMSDVSRIYLNEAAPVIGDVAMETITETIITESTMIGHNPQTPGGVGVGVGTTIALGRLATLPAAQYAEGWIVLIDDAVDFLDAVWWLNEALDRGINVVAAILKKDDGVLVNNRLRKTLPVVDEVTLLEQVPEGVMAAVEVAAPGQVVRILSNPYGIATFFGLSPEETQAIVPIARALIGNRSAVVLKTPQGDVQSRVIPAGNLYISGEKRRGEADVAEGAEAIMQAMSACAPVRDIRGEPGTHAGGMLERVRKVMASLTGHEMSAIYIQDLLAVDTFIPRKVQGGMAGECAMENAVGMAAMVKADRLQMQVIARELSARLQTEVVVGGVEANMAIAGALTTPGCAAPLAILDLGAGSTDAAIVNAEGQITAVHLAGAGNMVSLLIKTELGLEDLSLAEAIKKYPLAKVESLFSIRHENGAVEFFREALSPAVFAKVVYIKEGELVPIDNASPLEKIRLVRRQAKEKVFVTNCLRALRQVSPGGSIRDIAFVVLVGGSSLDFEIPQLITEALSHYGVVAGQGNIRGTEGPRNAVATGLLLAGQAN | soluble
5 | MFAGCATYAGLNFDQLFGPQLVRERTASVETPQADFFQREVKPIVDNRCVVCHACYDAPCQLKLSSVEGIDRGASKALVYEGTRLTAAAPTRLFEDAETTQEWRDAGFHPVLNERDQSMAANLEAGLIARLLQQKERHPLPDQVQLEGFDFSIDREQTCPTIEEYEQYEKDNPNWGMPFGMPNLTNSEYHTLMTWLENGAIMNMHTPISDQEQAKINQYETLLNHSDLKNQLMSRYIYEHLFLSHLYFSELSEKPRFFTLVRSATPPGQPVKRISTRRPYDDPGVERVYYRIIPEQGTIVDKTHMPFALNKQRISNWKKWFIEADYSVTQLPSYEPEVAANPMTAFIDMPVKSRFKFMLDNAQNTIMAYIKGPVCRGQLALNVINDRFWVFFLDPDKADIPEVNEFYRSQADNLKLPAEQESNTLPVTNWVKYARQQARYLEAKSEFTNNWFKHGENLSTDVIWDGNGTNPNAALTVFRHFDSASVVQGLVGEQPKTVWILDYALLERIHYLLVAGFDVYGNFGHQLMTRMFMDFLRLEGESNFVTLLPADMRHQLQSSWYQDQSPQLSDFLQRNVKPFNQPTSVVYKTDDPKTELLNMMRKRLSPVLLPRYEITDTALSDKTEKELKRIGQVRGEGLQTVPQITMLMVRSKSGKDELFTLLHNNAHTNISSLFDEESNRDFANDDMTIVRGVVGSYPAAFFSLKENQVKEFVDQFSAIQNEADYVKLLDSFAIRRSSEKFWPFSDRIHNWYRTNQPIEFGLLDYNRFENR | not soluble
6 | MRVELIYDKRNVGSLANATEIIRAELTKRVHRVFPDAEVNVKAMHANGINTNASKQEKSVLNRLVEEMFDEADEWLNNEF | not soluble
7 | MGSDKIHHHHHHMATVDLSQLPQPQIIEVLDFEVILREVKAVMIAAFPANQQASVTAALELESEPLNQIAQVIAYRELMLRQRINEGAASCMLSHAVSSDLDNLAANLNTERLVITAETETADAVMENDAAFRLRAQSAFEGLSVAGPTAAYEYFAKSASGKVKDAKAISPSPAVVVVSVISSEANGTASSELLSTVETALSAEDKRPVADRLTVQSAEIVDFAINAVLYLYPGPESEPIHTAAQKALQSWIGEQGMIGRDVARSSIMAALHVQGVQRVSVVEPPHDIVISDTQAAYCTGFTVTTGGIDG | not soluble
8 | MGSKTKKSFTVLLAFIMSFSVTGCFDKREIDDLVNPIAIGFDKGSNHSVRMTLQIAIPTKVAGGGEGGGGGGGEESVSYTTVEAPSIYSGLNMINSYVSKQLNMSQIKVLVFSEELAREGIEKYINALMRGREFRPHSYVIVARGTGNAAERYLRAVEPELESNPAKYYEMLLSAYTYTGFTANTSLTNFYKNMVSESTQPLAVLADISKFEKSDDINMDNSSYQEKGREFPLEGDFKAGDMPKVGTIKSEVMGLAVFNGSKMVGELDGEETQLQLMLEGNFGYSYVTIPDPEAEDYVVLLNIKQNRKPKRKVEIVDEKPHIKVNIYLEADILSIQSGVNYESLEKVKILEDAAEKFFEKGFLRMLKKTAKEFKSDIAGFGKEMKGKFLTWDEWTNFNWIEKYPDSEFEVDVDLKIRRPGLMLRTYPAAGTEVGEE | soluble
9 | MGSDKIHHHHHHMRIAVIGGGSSYTPELVKGLLDISEDVRIDEVIFYDIDEEKQKIVVDFVKRLVKDRFKVLISDTFEGAVVDAKYVIFQFRPGGLKGRENDEGIPLKYGLIGQETTGVGGFSAALRAFPIVEEYVDTVRKTSNATIVNFTNPSGHITEFVRNYLEYEKFIGLCNVPINFIREIAEMFSARLEDVFLKYYGLNHLSFIEKVFVKGEDVTEKVFENLKLKLSNIPDEDFPTWFYDSVRLIVNPYLRYYLMEKKMFKKISTHELRAREVMKIEKELFEKYRTAVEIPEELTKRGGSMYSTAAAHLIRDLETDEGKIHIVNTRNNGSIENLPDDYVLEIPCYVRSGRVHTLSQGKGDHFALSFIHAVKMYERLTIEAYLKRSKKLALKALLSHPLGPDVEDAKDLLEEILEANREYVKLG | not soluble
10 | MLKGKKILLCVTGGIAVFKAAALTSKLTQAGAIVKVMMSESAVKFVTPLTFQALSRHDVYTDTFDEKDSAVIAHIDLADWADVVLVAPATANCIGKLANGIADDMITTTLLATTAPVWIAPAMNVHMYENKIVQKNMMTLKTLGYTFIEPGEGFLACGYVAKGRLEEPEAIIARLEEAFSEQKPLQGKRILITAGPTREKIDPVRFMTNFSSGKMGYAIAEVAVNLGAEVILVSGPTALNPPLHVTTVQVESAQDMLEAVIQHYQNVDVVIKTAAVADYRPKYVHDNKMKKKNGDAVIELERTVDILKTLGEMKDKQLLIGFAAETTNVEEYATKKLREKNANMIVANDVKAQGAGFGTDTNIVTMYRKDGEVIELPLLTKKEVAREILKQIEMMLEDDRL | soluble
11 | MQRVGNTFSNESRVASRCPSVGLAERNRVATMPVRLLRDSPAAQEDNDHARDGFQMKLDAHGFAPEELVVQVDGQWLMVTGQQQLDVRDPERVSYRMSQKVHRKMLPSNLSPTAMTCCLTPSGQLWVRGQCVALALPEAQTGPSPRLGSLGSKASNLTR | soluble
12 | MGSDKIHHHHHHMAGCDDSFDIIVVGAGPVGLSFAASLAYSQLKLAVVEGQALERLASPAFDGREIALTHASIGILRELGAWDVISASDKSPLQGARVLNGSSPFALCFDSPGGSAEPLGVLVPNCQIRDALFKIIRLRGHARLLCGHSVVRATNSRQGAVITLSNGRQLSARLLVAADSRFSATRNLLGIGADINRLGNSMLICRVRHERPHHQIAIEWFDHHQTVAMLPLAPGVSSLLLTLPSNEADGLLALDDELFLRELTKRCRGRLGTMSLASQRYIYPLATTWAHRFRAPSFALIGDAAIGMHPVTAHGFNIGLGGQKQLARGIETAWRDRRDIADPDMLHRYESRLRLSAAPLYHATNILVGLYSSEHPAARLARHVGLRLGQHLPFVRHGIAAMLRR | not soluble
13 | LPSSPPAEEAIIDWPVALRQSANKEDLAKEMLGMLVDYLREVETVVNTALEDEEYPASDLLHHIHKLHGSCSYSGVPRLRKICASLEQALRNGASIDELEPELFELQDEMAKVLEASRDYLN | not soluble
14 | MGSDKIHHHHHHMDDFSEILARKRQGSLKVYLGYAAGVGKTYAMLQEAHRLAREGLDVVIGYVEPHDRADTLALVEGLEQVAPRKVAIAGSDFTEMDVPGIIARRPQVVLVDELAHTNAAGSENGKRYQDVLKVLEAGINVITTLNVQHLESVAERVESVAGVRVQERLPDAILRRADQVVNVDLTKEDLRERLRQGRIYSPEQAERALGGFFSYRNLSFLRELCLREASGDQVRKIEEQEHFPRHSAGDVIEGVMVALSSSPTDAETLIRRGVRIAHQMGSPCYVVYVQRPSENPTRIDSGLQRVLQGNLRLATQLGAEVVQLAGGDIAETLANFASERNVRHAVFGKSRLSPLLERVRGSFILEFLHDAVGVDVHIVNTTPRQPGQERA | not soluble
15 | MGSDKIHHHHHHMLITETFHDVQTSYGTTLRIYVYSPKIAGYPQAKFPGVILYSEIYQVTGPVRRFGQRIASEGYVVVAPAIYHNFMGPEALPYDVQGTDIGNEYKIKKPLESYDEDNKLCCDLLFQLPQFDGKRIGSTGMCLGGHLAFRALLDKRVTCATCFFPTDIHSRTLGLGQNDNSLERVSKELGNNQEMVLIFGTADTHVDPQGRDLIRKTLRDHGVKFTFLEILAAQHAFIRDEFSKGRFDSAITQSCLGFLFEQFNRKLRIDLGEFVDDNTPLEHVC | not soluble
16 | MGLLKALLGFDRRDIETLARSNEENRRRIEALEAALARLEERISSISQALGRDARSTESLQGVEKEGGRETEYEGHNGTVEEGMLEDEGIIISHLEKGDATPSELIRDTGLSKNRVYGVLKRLVERGIVEKRRDGRRVVYSLRRVEAQADAPG | not soluble
17 | MSDVMADRTPPHNIEAEQAVLGAILIDQDALTSASELLVPDSFYRTKHQKIFEVMLGLSDKGEPIDLVMMTSAMADQGLLEEVGGVSYLAELAEVVPTAANVEYYARIIAEKALLRRLIRTATHIVSDGYEREDDVDGLLNEAEKKILEVSHQTNAKAFQNIKDVLVDAYDKIELLHNQKGEVTGIPTGFTELDKMTAGFQRNDLIIVAARPSVGKTAFSLNIAQNVATKTDENVAIFSLEMGADQLVMRMLCAEGNIDAQRLRTGSLTSDDWAKLTMAMGSLSNAGIYIDDTPGIKVNEIRAKCRRLKQEQGLGMILIDYLQLIQGSGKSGENRQQEVSEISRTLKGIARELQVPVIALSQLSRGVESRQDKRPMMSDIRESGSIEQDADIVAFLYREDYYDRETENKNTIEIIIAKQRNGPVGSVELAFVKEFNKFVNLERRFEDGHAPPA | not soluble
18 | AEWSGEYISPYAEHGKKSEQVKKITVSIPLKVLKILTDERTRRKVNNLRHATNSELLCEAFLHAFTGQPLPDDADLRKERSDEIPEAAKEIMREMGINPETWEY | soluble
